Data published in PMC5490839 (Nature immunology, 2016).
Where no end group is shown, it is not given here. The star is where a group is joined. Maleimide‑PEG2‑Biotin = EZ Link Maleimide-PEG2-Biotin, O=C(CCCC[C@@H]1SC[C@@H]2NC(=O)N[C@@H]21)NCCOCCOCCNC(=O)CCN1C(=O)CC(*)C1=O

Assays:
[1] = target: T1, Zap70 K369A (full length) (human, UniProt P43403 1-619, K369A); assay: ELISA
T1 sequence (looked up): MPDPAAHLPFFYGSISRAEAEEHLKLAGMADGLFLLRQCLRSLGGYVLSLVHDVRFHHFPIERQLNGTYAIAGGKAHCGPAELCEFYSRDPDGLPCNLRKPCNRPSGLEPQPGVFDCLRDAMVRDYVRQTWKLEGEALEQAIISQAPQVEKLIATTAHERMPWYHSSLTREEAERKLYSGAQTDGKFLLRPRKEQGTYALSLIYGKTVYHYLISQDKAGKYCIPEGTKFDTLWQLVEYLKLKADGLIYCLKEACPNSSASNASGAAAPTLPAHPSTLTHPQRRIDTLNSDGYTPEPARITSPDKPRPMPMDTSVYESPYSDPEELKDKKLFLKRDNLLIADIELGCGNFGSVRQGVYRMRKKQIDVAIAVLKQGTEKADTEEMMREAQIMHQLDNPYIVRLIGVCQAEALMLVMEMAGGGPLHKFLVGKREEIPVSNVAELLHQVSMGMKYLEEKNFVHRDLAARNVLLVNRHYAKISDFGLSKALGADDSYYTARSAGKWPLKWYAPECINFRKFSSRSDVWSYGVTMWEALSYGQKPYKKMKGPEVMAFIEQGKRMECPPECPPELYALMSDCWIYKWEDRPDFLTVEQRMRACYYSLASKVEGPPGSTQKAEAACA

[2] = target: T2, Zap70 D461N (full length, kinase-inactive) (human, UniProt P43403 1-619, D461N); assay: ELISA
T2 sequence (looked up): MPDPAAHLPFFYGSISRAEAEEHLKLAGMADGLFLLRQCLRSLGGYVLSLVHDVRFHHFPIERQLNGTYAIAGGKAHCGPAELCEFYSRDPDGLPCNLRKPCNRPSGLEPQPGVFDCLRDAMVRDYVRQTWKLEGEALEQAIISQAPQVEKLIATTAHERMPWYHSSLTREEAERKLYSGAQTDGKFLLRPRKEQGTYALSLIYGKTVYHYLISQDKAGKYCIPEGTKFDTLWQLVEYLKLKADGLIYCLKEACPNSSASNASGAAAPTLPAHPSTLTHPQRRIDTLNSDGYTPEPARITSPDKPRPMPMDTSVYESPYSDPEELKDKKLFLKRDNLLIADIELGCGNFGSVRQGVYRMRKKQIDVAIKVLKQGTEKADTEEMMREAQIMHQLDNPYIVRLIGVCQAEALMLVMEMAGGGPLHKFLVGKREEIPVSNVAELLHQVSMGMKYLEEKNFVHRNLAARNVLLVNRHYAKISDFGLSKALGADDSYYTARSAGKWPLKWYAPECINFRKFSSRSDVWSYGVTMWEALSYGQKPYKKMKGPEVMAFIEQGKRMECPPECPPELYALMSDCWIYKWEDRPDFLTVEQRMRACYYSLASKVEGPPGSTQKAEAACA

[3] = target: T3, Zap70 K369R (full length) (human, UniProt P43403 1-619, K369R); assay: ELISA
T3 sequence (looked up): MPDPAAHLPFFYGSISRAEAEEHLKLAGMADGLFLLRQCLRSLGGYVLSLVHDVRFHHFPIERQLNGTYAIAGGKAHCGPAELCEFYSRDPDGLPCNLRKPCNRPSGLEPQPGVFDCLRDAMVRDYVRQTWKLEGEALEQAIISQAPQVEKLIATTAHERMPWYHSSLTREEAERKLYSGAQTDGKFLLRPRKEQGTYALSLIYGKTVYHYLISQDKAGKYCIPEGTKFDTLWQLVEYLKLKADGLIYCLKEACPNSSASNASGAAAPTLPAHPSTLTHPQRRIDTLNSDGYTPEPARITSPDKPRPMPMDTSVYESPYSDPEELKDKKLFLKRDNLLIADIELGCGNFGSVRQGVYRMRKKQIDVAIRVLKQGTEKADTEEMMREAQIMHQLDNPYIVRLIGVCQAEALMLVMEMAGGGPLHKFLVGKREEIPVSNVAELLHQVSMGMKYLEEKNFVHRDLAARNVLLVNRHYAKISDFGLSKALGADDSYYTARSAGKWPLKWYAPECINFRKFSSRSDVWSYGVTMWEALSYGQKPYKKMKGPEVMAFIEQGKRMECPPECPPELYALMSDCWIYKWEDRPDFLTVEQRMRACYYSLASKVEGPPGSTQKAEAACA

[4] = target: T4, wild-type Zap70 (full-length human Zap70) (human, UniProt P43403 1-619); assay: ELISA
T4 sequence (looked up): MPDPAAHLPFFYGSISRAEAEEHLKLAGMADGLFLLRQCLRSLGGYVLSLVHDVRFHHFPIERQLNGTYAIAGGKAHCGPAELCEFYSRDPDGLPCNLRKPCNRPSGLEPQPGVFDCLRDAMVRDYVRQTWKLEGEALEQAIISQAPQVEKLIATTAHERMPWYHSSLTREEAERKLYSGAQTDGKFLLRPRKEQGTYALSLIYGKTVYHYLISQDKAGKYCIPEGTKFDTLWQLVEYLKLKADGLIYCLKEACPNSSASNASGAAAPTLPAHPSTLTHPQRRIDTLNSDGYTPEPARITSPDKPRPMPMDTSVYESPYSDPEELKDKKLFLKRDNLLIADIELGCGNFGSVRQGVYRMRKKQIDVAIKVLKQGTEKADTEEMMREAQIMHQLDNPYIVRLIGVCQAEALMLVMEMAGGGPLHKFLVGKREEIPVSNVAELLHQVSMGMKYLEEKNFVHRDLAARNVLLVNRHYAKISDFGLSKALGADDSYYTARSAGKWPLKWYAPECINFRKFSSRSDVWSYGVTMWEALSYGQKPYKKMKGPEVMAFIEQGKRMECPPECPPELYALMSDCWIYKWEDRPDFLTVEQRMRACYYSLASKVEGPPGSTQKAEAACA

[5] = target: T1, Zap70 K369A (full length); assay: BLI
[6] = target: T4, wild-type Zap70 (full-length human …); assay: BLI
[7] = target: T2, Zap70 D461N (full length, …); assay: BLI
[8] = target: T3, Zap70 K369R (full length); assay: BLI

Measured: binding result

GGAGQDGVRQSRASDKQTLLPNDQLYQPLKDREDDQYSHLQGNQLRRN (domain or fragment, also: ITAM phosphorylated by Lck, sites not given here, GST fusion)
binds: [1] | [2] | [3] | [4]

C(Maleimide‑PEG2‑Biotin)AGQDGVRQSRASDKQTLLPNDQLYQPLKDREDDQYSHLQGNQLRRN (domain or fragment, also: ITAM phosphorylated by Lck, sites not given here) [bio-phosphorylated CD3γ^CD (biotinylated, phosphorylated cysCD3γ^CD, human CD3γ amino acids 137-182)]
binds: [5] | [6] | [7] | [8]
